Assay results taken from patent US20230265217A1 (TWIST BIOSCIENCE, published 2023).
Numbering of substitutions follows the chain as printed. Read-outs that look alike come from different tables or passages of the source.

Legend:
[1] = target: T1, Antibody 178-09_His B.1.1.7 (27080) (SARS-CoV-2, UniProt P0DTC2 14-685); assay: Carterra SPR
T1 construct: domain: S1; also called TB178-9

[2] = target: T2, S1 RBD L452R E484Q (Acro) (SARS-CoV-2, UniProt P0DTC2 319-537); assay: Carterra SPR
T2 construct: domain: S1 RBD; also called SARS-COV-2 RBD India Var; L452R E484Q S1; India variant mutation L452R E484Q

[3] = target: T3, Antibody 178-08_His 501.V2 (27079) (SARS-CoV-2, UniProt P0DTC2 14-685); assay: Carterra SPR
T3 construct: domain: S1; also called TB178-8

[4] = target: T4, Antibody 178-10_His CA_W152C_L452R_D614G (27081) (SARS-CoV-2, UniProt P0DTC2 14-685); assay: Carterra SPR
T4 construct: domain: S1; also called CA variant S1; California variant S1

[5] = target: T1, Antibody 178-09_His B.1.1.7 (27080); assay: Carterra SPR; remark: listed apart in the source
[6] = target: T2, S1 RBD L452R E484Q (Acro); assay: Carterra SPR; remark: listed apart in the source
[7] = target: T3, Antibody 178-08_His 501.V2 (27079); assay: Carterra SPR; remark: listed apart in the source
[8] = target: T4, Antibody 178-10_His …; assay: Carterra SPR; remark: listed apart in the source
[9] = target: T5, SARS-CoV-2 S protein trimer (Kappa B.1.617.1 India variant) [SPN-C52Hr] (SARS-CoV-2, UniProt P0DTC2 16-1213); assay: binding kinetics, Carterra SPR
T5 construct: also called B.1.617.1 Kappa India variant

[10] = target: T6, SARS-CoV-2 S protein trimer (Alpha B.1.1.7 UK variant) [SPN-C52H6] (SARS-CoV-2, UniProt P0DTC2 16-1213); assay: binding kinetics, Carterra SPR
T6 construct: also called B.1.1.7 Alpha UK variant

[11] = target: T7, SARS-CoV-2 S protein trimer (Delta B.1.617.2 India variant) [SPN-C52He] (SARS-CoV-2, UniProt P0DTC2 16-1213); assay: binding kinetics, Carterra SPR
T7 construct: also called B.1.617.2 Delta India variant [SPN-C52he]

[12] = target: SARS-CoV-2 S protein trimer [SPN-C52H9] (SARS-CoV-2, UniProt P0DTC2 16-1213); assay: binding kinetics, Carterra SPR
[13] = target: T8, SARS-CoV-2 S protein trimer (Beta B.1.351 SA variant) [SPN-C52Hk] (SARS-CoV-2, UniProt P0DTC2 16-1213); assay: binding kinetics, Carterra SPR
T8 construct: also called B.1.351 Beta SA variant

[14] = target: SARS-CoV-2 S protein trimer [SPN-C52H7] (SARS-CoV-2, UniProt P0DTC2 16-1213); assay: Carterra SPR
[15] = target: T5, SARS-CoV-2 S protein trimer (Kappa …); assay: Carterra SPR
[16] = target: T8, SARS-CoV-2 S protein trimer (Beta …); assay: Carterra SPR
[17] = target: T6, SARS-CoV-2 S protein trimer (Alpha …); assay: Carterra SPR
[18] = target: T7, SARS-CoV-2 S protein trimer (Delta …); assay: Carterra SPR
[19] = target: T9, SARS-CoV-2 S1 [S1N-C52H4] (SARS-CoV-2, UniProt P0DTC2 16-685); assay: Carterra SPR
T9 construct: domain: S1

[20] = target: SARS-CoV-2 S protein trimer (P.1 Gamma Brazil variant) [SPN-C52Hg] (SARS-CoV-2, UniProt P0DTC2 16-1213); assay: Carterra SPR

B1: 8-3 (VHH, not shown: a dimerising Fc or GST)
VHH: EVQLVESGGGLVQPGGSLRLSCAASGTTLDYYAMGWFRQAPGKEREFVAAISWSGGSTAYADSVKGRFTISADNSKNTAYLQMNSLKPEDTAVYYCAREDYYDSSGYSWGQGTLVTVSS
With B1 the Kd [1] was 40.5 nM, the binding result [2] was “no binding” and the Kd [3] was 1.7 nM. The Kd [4] was 100 nM.

B2: 7-14 (VHH)
VHH: EVQLVESGGGLVQPGGSLRLSCAASGSTFSINAMGWFRQAPGKEREFVAGISRGGTTNYADSVKGRFTISADNSKNTAYLQMNSLKPEDTAVYYCAADGVPEYSDYASGPVWGQGTLVTVSS
B2 was tested, and the Kd [5] was 19.2 nM, the Kd [6] was 20.1 nM and the Kd [7] was 16.9 nM. It also gave a Kd [8] of 43.1 nM, a Kd [9] of at most 0.0083 nM and a koff [9] of at most 1e-05 s⁻¹. For the same binder, the kon [9] was 1.2e+06 M⁻¹ s⁻¹, the Kd [10] was at most 0.00862 nM and the koff [10] was at most 1e-05 s⁻¹. The kon [10] was 1.16e+06 M⁻¹ s⁻¹, the Kd [11] was at most 0.00994 nM and the koff [11] was at most 1e-05 s⁻¹. It also gave a kon [11] of 1.01e+06 M⁻¹ s⁻¹, a Kd [1] of 19.2 nM and a Kd [2] of 20.1 nM. It also gave a Kd [3] of 16.9 nM, a Kd [4] of 43.1 nM and a Kd [12] of at most 0.0105 nM. It also gave a koff [12] of at most 1e-05 s⁻¹, a kon [12] of 954000 M⁻¹ s⁻¹ and a Kd [13] of 0.00853 nM. It also gave a koff [13] of 1.05e-05 s⁻¹, a kon [13] of 1.23e+06 M⁻¹ s⁻¹ and a Kd [14] of at most 0.0142 nM. The koff [14] was at most 1e-05 s⁻¹, the kon [14] was 703000 M⁻¹ s⁻¹ and the Kd [15] was 0.012 nM. The koff [15] was 1e-05 s⁻¹, the kon [15] was 835000 M⁻¹ s⁻¹ and the Kd [16] was 0.0171 nM. The koff [16] was 1.6e-05 s⁻¹, the kon [16] was 931000 M⁻¹ s⁻¹ and the Kd [17] was 0.0128 nM. It also gave a koff [17] of 1e-05 s⁻¹, a kon [17] of 782000 M⁻¹ s⁻¹ and a Kd [18] of 0.0122 nM. For the same binder, the koff [18] was 1e-05 s⁻¹, the kon [18] was 818000 M⁻¹ s⁻¹ and the Kd [19] was 12.4 nM. The koff [19] was 0.000464 s⁻¹, the kon [19] was 37400 M⁻¹ s⁻¹ and the Kd [20] was 0.0185 nM. It also gave a koff [20] of 1.62e-05 s⁻¹ and a kon [20] of 877000 M⁻¹ s⁻¹.

B3: 7-30 (VHH, not shown: a dimerising Fc or GST)
VHH: EVQLVESGGGLVQPGGSLRLSCAASGRTFSMHAMGWFRQAPGKEREFVASISSQGRTNYADSVKGRFTISADNSKNTAYLQMNSLKPEDTAVYYCAAEVRNGSDYLPIDWGQGTLVTVSS
B3 was tested, and the Kd [5] was 32 nM, the Kd [8] was 55.9 nM and the Kd [1] was 32 nM. For the same binder, the binding result [2] was “no binding”, the binding result [3] was “no binding” and the Kd [4] was 55.9 nM.

B4: 3-17 (VHH, not shown: a dimerising Fc or GST)
VHH: EVQLVESGGGLVQPGGSLRLSCAASGRTSSSAVMGWFRQAPGKEREFVAAINRGGSTIYVDSVKGRFTISADNSKNTAYLQMNSLKPEDTAVYYCATGPYRSYFARSYLWGQGTLVTVSS
B4: no binding [1]; no binding [2]; no binding [3]. B4: no binding [4].

B5: 7-40 (VHH)
VHH: EVQLVESGGGLVQPGGSLRLSCAASGRTFRRYTMGWFRQAPGKEREFVASITKFGSTNYADSVKGRFTISADNSKNTAYLQMNSLKPEDTAVYYCAKEDVGKPFDWGQGTLVTVSS
B5: no binding [1]; no binding [2]; no binding [3]. B5: no binding [4].

B6: 7-45 (VHH)
VHH: B5 VHH with F29L, R30S, K53S, F54G
In the case of B6, the Kd [1] is reported as 43.4 nM, the binding result [2] is reported as “no binding” and the binding result [3] is reported as “no binding”. B6: no binding [4].

B7: 7-41 (VHH)
VHH: B5 VHH with R30S, R31T, T33V, T52S, K53S, F54R, S56I, N58H
For B7, the Kd [1] was 35.6 nM, the binding result [2] was “no binding” and the binding result [3] was “no binding”. It also gave a Kd [4] of 95.5 nM.

B8: 7-26 (VHH)
VHH: EVQLVESGGGLVQPGGSLRLSCAASGSTFSINAMGWFRQAPGKEREFVAGITSSGGYTNYADSVKGRFTISADNSKNTAYLQMNSLKPEDTAVYYCAADGVPEYSDYASGPVWGQGTLVTVSS
B8 was tested, and the Kd [5] was 22.7 nM, the Kd [7] was 74.9 nM and the Kd [8] was 34.8 nM. The Kd [1] was 22.7 nM, the Kd [3] was 74.9 nM and the Kd [4] was 34.8 nM.

B9: 3-31 (VHH)
VHH: B8 VHH
notes: also called 3-31_ExpiCHO
For B9, the Kd [5] was 16.1 nM, the Kd [7] was 96700 nM and the Kd [8] was 41 nM. The Kd [1] was 16.1 nM, the Kd [3] was 96700 nM and the Kd [4] was 41 nM. For the same binder, the Kd [19] was 4.12 nM.

B10: 6A-63 (VHH)
VHH: EVQLVESGGGLVQPGGSLRLSCAASGQTFNMGWFRQAPGKEREFVAAIGSGGSTSYADSVKGRFTISADNSKNTAYLQMNSLKPEDTAVYYCWRLGNDYFDYWGQGTLVTVSS
B10: no binding [8].

B11: 3-24 (VHH, not shown: a dimerising Fc or GST)
VHH: EVQLVESGGGLVQPGGSLRLSCAASGINFSRYGMGWFRQAPGKEREFVASITYLGRTNYADSVKGRFTISADNSKNTAYLQMNSLKPEDTAVYYCALRVRPYGQYDWGQGTLVTVSS
B11 was tested, and the Kd [1] was 2610 nM, the binding result [2] was “no binding” and the Kd [3] was 586 nM. B11: no binding [4].

B12: 3-28 (VHH, not shown: a dimerising Fc or GST)
VHH: EVQLVESGGGLVQPGGSLRLSCAASGFTFRRYDMGWFRQAPGKEREFVSAISGGLAYYADSVKGRFTISADNSKNTAYLQMNSLKPEDTAVYYCAVDLSGDAVYDWGQGTLVTVSS
With B12 the Kd [5] was 16.6 nM, the Kd [7] was 22 nM and the Kd [1] was 16.6 nM. The binding result [2] was “no binding”, the Kd [3] was 22 nM and the binding result [4] was “no binding”.

B13: 6A-3 (VHH)
VHH: EVQLVESGGGLVQPGGSLRLSCAASGFTFSPSWMGWFRQAPGKEREFVATINEYGGRNYADSVKGRFTISADNSKNTAYLQMNSLKPEDTAVYYCARVDRDFDYWGQGTLVTVSS
Work on B13 yielded a Kd [8] of 26.8 nM.

B14: 7-09 (VHH)
VHH: EVQLVESGGGLVQPGGSLRLSCAASGGTFSSIGMGWFRQAPGKEREFVAAISWDGGATAYADSVKGRFTISADNSKNTAYLQMNSLKPEDTAVYYCAKEDVGKPFDWGQGTLVTVSS
notes: also called 7-9
B14 showed a Kd [5] of 23.2 nM, a Kd [6] of 177000 nM and a Kd [8] of 38.7 nM. The Kd [1] was 23.2 nM, the Kd [2] was 177000 nM and the binding result [3] was “no binding”. The Kd [4] was 38.7 nM.

B15: 5A-1 (VHH)
VHH: B14 VHH
With B15 the Kd [8] was 12.7 nM.

B16: 7-24 (VHH, not shown: a dimerising Fc or GST)
VHH: EVQLVESGGGLVQPGGSLRLSCAASGFTFSRHAMNWFRQAPGKEREFVSTITGSGGSTNYADSVKGRFTISADNSKNTAYLQMNSLKPEDTAVYYCAREVGLYYYGSGSSSRRLLGRIDYYFDYWGQGTLVTVSS
B16: no binding [1]; no binding [2]; no binding [3]. B16: no binding [4].
